In patent US20230060040A1, “USE OF TRANSFERRIN, TRANSFERRIN RECEPTOR AND ANTIBODY THEREOF IN PREPARATION OF ANTI-SARS-CoV-2 DRUG” (KUNMING INSTITUTE OF ZOOLOGY, CHINESE ACADEMY OF SCIENCES, priority 2020, published 2023):

Biological target: transferrin receptor on the membrane surface of Vero E6 cells (African green monkey)
Assay: cell-based or functional assay

“transferrin (Sigma, catalog number T4382) (from UniProt P02787 20-698) (ligand)” gave an EC50 of inhibition of SARS-CoV-2 infection of Vero E6 cells, calculated by CPE of 125 nM.
